Source: paper PMC12866682 (2025)

Assays:
T96K TREM2 protein = T96K TREM2 protein (UniProt Q9NZC2); experiment: solid-phase binding (SPB) assay; WT, R47H or T96K TREM2 immobilised, MPO in solution (n=5); method not described in the text shown
Purified human MPO = molecular target: T1, Purified human MPO (human, UniProt P05164 49-745); experiment: SPR
T1 chain: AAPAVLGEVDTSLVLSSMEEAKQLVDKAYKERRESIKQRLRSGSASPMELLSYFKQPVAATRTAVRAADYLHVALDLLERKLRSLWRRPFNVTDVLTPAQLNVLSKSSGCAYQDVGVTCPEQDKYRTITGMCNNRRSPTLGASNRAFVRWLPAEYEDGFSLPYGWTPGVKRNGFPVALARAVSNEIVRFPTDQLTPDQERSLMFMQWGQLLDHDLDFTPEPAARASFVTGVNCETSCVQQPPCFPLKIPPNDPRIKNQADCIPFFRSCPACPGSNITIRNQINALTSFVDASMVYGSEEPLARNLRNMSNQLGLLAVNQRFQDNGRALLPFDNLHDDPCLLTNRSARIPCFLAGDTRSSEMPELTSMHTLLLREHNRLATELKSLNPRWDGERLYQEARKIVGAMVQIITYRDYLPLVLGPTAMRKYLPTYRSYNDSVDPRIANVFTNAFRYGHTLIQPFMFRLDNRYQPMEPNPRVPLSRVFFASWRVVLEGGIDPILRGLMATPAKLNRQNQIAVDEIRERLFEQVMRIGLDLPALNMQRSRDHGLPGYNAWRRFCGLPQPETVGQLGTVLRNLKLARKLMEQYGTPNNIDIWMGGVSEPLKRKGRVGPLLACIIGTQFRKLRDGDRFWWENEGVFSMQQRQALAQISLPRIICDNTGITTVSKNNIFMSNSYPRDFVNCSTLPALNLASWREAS

A fold affinity over the WT or R47H TREM2 protein (T96K TREM2 protein) of 1.3 fold was found for “Purified human MPO (from UniProt P05164 49-745) (ligand)” in this work.

B1: Purified human TREM2 protein (receptor)
chain: HNTTVFQGVAGQSLQVSCPYDSMKHWGRRKAWCRQLGEKGPCQRVVSTHNLWLLSFLRRWNGSTAITDDTLGGTLTITLRNLQPHDAGLYQCQSLHGSEADTLRKVLVEVLADPLDHRDAGDLWFPGESESFEDAHVEHSISRSLLEGEIPFPPTSILLLLACIFLIKILAASALWAAAWHGQKPGTHPPSELDCGHDPGYQLQTLPGLRDT
A Kd (Purified human MPO) of 551 nM was found for B1 in this work.
